Here are results for eight molecules from publication PMC8448731 (Nature Communications, 2021).

This test deals with T1, SARS-CoV-2 spike RBD with C-terminal 3xFlag tag and N-terminal signal peptide of the spike (RBD-3xFlag) (SARS-CoV-2, Wuhan-Hu-1 type (wild type), UniProt P0DTC2).
T1 construct: also called RBD-3×Flag; wild-type RBD; not shown: 3xFlag, C-terminal, kept
The test is described as follows: ELISA. The conditions noted are these: one partner purified. A general note: ELISA stands for enzyme-linked immunosorbent assay.

B1: SR1 (VHH)
VHH: EVQLVESGGGLVQAGDSLRLSCAASGKTGRSVIMGWFRQAPDKEREFVATITRGDDTTNYADSVKGRFTISRDDARNTVYLQMNSLKPEDTAVYYCAAVYFVNDCIVDYWGQGTQVTVSS
notes: not shown: 6xHis, C-terminal, kept
Consider B1, for which the binding result is listed as “binds”.

B2: SR6c3 (VHH)
VHH: EVQLVESGGGLVQAGDSLRLSCAASGDCHVLWRMGWFRQAPGKEREFVAAISLDGQFTNYADSVRGRFSISADSAKNTVYLQMNSLKPEDTAVYYCAALPFLDYWGQGTQVTVSS
notes: as for B1
As to B2, the binding result is listed as “binds”.

B3: SR6v9 (VHH)
VHH: EVQLVESGGGLVQAGDSLRLSCAASGDSHVLWRMGWFRQAPGKEREFVAAISLDGQFTNYADSVRGRFSISADSAKYTVYLQMNSLKPEDTAVYYCAALPFLDYWGQGTQVTVSS
notes: as for B1
As for B3, the binding result was “binds”.

B4: SR6v7 (VHH)
VHH: EVQLVESGGGLVQAGDSLRLSCAASGDSYILWRMGWFRQAPGKEREFVAAISLDGQFTNYADSVRGRFSISADSAKNTVYLQMNSLKPEDTAVYYCAALPFLDYWGQGTQVTVSS
notes: as for B1
In the case of B4, the binding result is listed as “binds”.

B5: SR6v1 (VHH)
VHH: EVQLVESGGGLVQAGDSLRLSCAASGDSHVLWRMGWFRQAPGKEREFVAAISLDGQFTNYADSVRGRFSISADSAKNTVYLQMNSLKPEDTAVYYCAALPFLDYWGQGTQVTVSS
notes: as for B1
As to B5, the binding result was “binds”.

B6: SR2 (VHH)
VHH: EVQLVESGGGLVQAGDSLRLSCAASGAFGSNVFMGWFRQAPGKEREFVASITPHHTVTDYADSVRGRFSISADSAKNTVYLQMNSLKPEDTAVYYCAAAIYRNASVLDYWGQGTQVTVSS
notes: as for B1
Regarding B6, the binding result is “binds”.

B7: SR12c3 (VHH)
VHH: EVQLVESGGGLVQAGDSLRLSCAASGAIVHVFAMGWFRQAPGKEREFVASINLDNDVTNYADSVKGRFTISRDDARNTVYLQMNSLKPEDTAVYYCNATIFTDSGLGDYWGQGTQVTVSS
notes: as for B1
Take B7: the binding result is “binds”.

B8: SR12 (VHH)
VHH: EVQLVESGGGLVQAGDSLRLSCAASGAIVHVFAMGWFRQAPGKEREFVASINLDNDATNYADSVKGRFTISRDDARNTVYLQMNSLKPEDTAVYYCNATIFMDSDLGDYWGQGTQVTVSS
notes: as for B1
Regarding B8, the binding result is on record as “binds”.
